Results from article PMC8631942.
Values joined by “and” are separate entries in the source; they are usually repeats but may differ in a detail not shown here. Equal entries are not always repeated.

Legend:
[1] = target: His10-BTLA^ICD BTLA^FFYF, pre-phosphorylated (human) (UniProt Q7Z6A9); experiment: SPR; OpenSPR (Nicoya); pre-phosphorylated His10-tagged PD-1 or BTLA ICD immobilised on a Ni sensor chip (about 1500 RU); SH2 injected at 20-1000 nM, 20 μl/min; 20 mM HEPES, 150 mM NaCl, 5 mM imidazole, 0.05% Tween-20, 10% glycerol, pH 7.5; equilibrium analysis (Evaluate EC50, TraceDrawer)
[2] = target: His10-PD-1^ICD PD-1^YF, pre-phosphorylated (human) (UniProt Q15116); experiment: as above
[3] = target: His10-PD-1^ICD PD-1^FY, pre-phosphorylated (human) (UniProt Q15116); experiment: as above
[4] = target: pre-phosphorylated His10-PD-1 ICD (aa 194-288) PD-1^YF (human) (UniProt Q15116); experiment: SPR; OpenSPR (Nicoya); pre-phosphorylated His10-tagged PD-1 ICD or BTLA ICD tyrosine mutant immobilised on a Ni sensor chip (about 1500 RU); SH2 injected at 20-1000 nM, 20 ul/min; 20 mM HEPES, 150 mM NaCl, 5 mM imidazole, 0.05% Tween-20, 10% glycerol, pH 7.5; equilibrium fit ('Evaluate EC50', TraceDrawer); three independent repeats on different chips
[5] = target: pre-phosphorylated His10-PD-1 ICD (aa 194-288) PD-1^FY (human) (UniProt Q15116); experiment: as above
[6] = target: pre-phosphorylated His10-BTLA ICD (aa 190-289) triple-tyrosine-mutant FFYF (human) (UniProt Q7Z6A9); experiment: as above
[7] = target: pre-phosphorylated His10-BTLA ICD (aa 190-289) triple-tyrosine-mutant FFFY (human) (UniProt Q7Z6A9); experiment: as above

Substance	Kd [4]	Kd [5]	Kd [6]	also measured
SNAP-SHP1-nSH2 (domain or fragment)				Kd [1]: 0.064 µM
SNAP-SHP2-nSH2 (domain or fragment)				Kd [2]: 0.38 µM; Kd [3]: 0.14 µM
SNAP-SHP2-cSH2 (domain or fragment)				Kd [2]: 1.4 µM; Kd [3]: 0.1 µM
SNAP-SHP2-cSH2 (from UniProt Q06124 1-593) (domain or fragment)	1.9 µM and 0.77 µM and 1.4 µM	0.083 µM and 0.077 µM and 0.13 µM		
SNAP-SHP1-nSH2 (from UniProt P29350 1-595) (domain or fragment)	0.2 µM and 0.21 µM and 0.4 µM	0.072 µM and 0.11 µM and 0.0883 µM	0.05 µM and 0.073 µM and 0.068 µM	
SNAP-SHP2-nSH2 (from UniProt Q06124 1-593) (domain or fragment)	0.27 µM and 0.42 µM and 0.46 µM	0.12 µM and 0.11 µM and 0.2 µM	0.43 µM and 0.27 µM	
SNAP-SHP1-cSH2 (from UniProt P29350 1-595) (domain or fragment)		1.1 µM and 0.66 µM and 3.2 µM	2 µM and 1.6 µM	Kd [7]: 0.76 µM and 1.2 µM and 0.61 µM
